This note sets out measurements from the nanobody polyreactivity screen of Harvey et al. (2022).

The data set is described as follows: yeast display, Sf9 membrane polyspecificity reagent, FACS + sequencing; frameworks hold sequencing errors. A digest of the protocol: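 Galactose-induced (36–48 hours) yeast carrying a synthetic nanobody display library were exposed to 10% biotinylated, detergent-solubilized Sf9 membrane reagent at 4 °C for 1 hour. FACS followed streptavidin microbead enrichment, using low and high (top ~1%) gates for expression (anti-HA) and reagent binding (streptavidin). Colony PCR, MiSeq 2 × 250 sequencing and CDR-length filtering followed. Labels for polyreactivity reflect the gate of origin.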
For “QVQLVESGGGLVQAGGSLRISCAASGSIFYWNTMGWYRQAPGKERELVATITRSGGSTRYADSVKGRCTISRDNAKITVYLQMNSLKPEDTAVYYCAAYRVYKRVVRGFDYWGQGTQVTVSS”, the “polyreactivity (PSR sort gate)” value is “low polyreactivity”.

Take “QVQLVESGGGLVQAGGSLRISCAASGSISVYNAMGWYRQAPGKERELVAAISWSGGRTSYADSVKGRFTISRDNAKKTVYLQMNSLKPEDTEVYYCAADELTVLWDEDYWGQGTQVTVSS”: the “polyreactivity (PSR sort gate)” value was “low polyreactivity”.

On to “QVQLVESGGGLVQAGGSLRISCAASGSTFAGNAMGWYRQAPGKERELVAAIDSSTGSTYYADSVKGRFTISRDNAKNTVYLQMNSLKPEDTAVYYCNKTSFLVKLDYWGQGTQVTVSS”, for which the “polyreactivity (PSR sort gate)” value is reported as “low polyreactivity”.

Turning to “QVQLVESGGGLVQAGGSLRISCAASGSTFDPYGMGWYRQAPGTERELVAAITSSGRTNYADSVKGRFTISRDNAKNTVYLQMNSLKPEDTAVYYCATRKERYFYRGYEYWGQGTQVTVSS”, the “polyreactivity (PSR sort gate)” value is listed as “low polyreactivity”.

Take “QVQLVESGGGLVQAGGSLRISCAASGSTFDVNAMGWYRQAPGKERELVAAISWNSGSTYYADSVKGRFTISRDNAKNTVYLQMNSLKPEDTAVYYCAATYGTGRRSKYGYWGQGTQVTVSS”: the “polyreactivity (PSR sort gate)” value is on record as “high polyreactivity”.

For the sequence “QVQLVESGGGLVQAGGSLRISCAASGSTFSYYAMGWYRQAPGKERELVAAISQTGGTTYYADSVKGRFTISRDNAKNTVYLQMNSLTPEDTAVYYSNAARPGGHYWGQGTQVTVSS”, the “polyreactivity (PSR sort gate)” value is “low polyreactivity”.

For “QVQLVESGGGLVQAGGSLRISCAASGSTFYRNAMGWYRQAPGKEREFVAAISFRGGGTYADSVKGRFTISRDNAKNTVYLQMNSLKPEDTAVYYCAADHLSYRRRYEYWGQGTQVTVSS”, the “polyreactivity (PSR sort gate)” value is “low polyreactivity”.

For “QVQLVESGGGLVQAGGSLRISCAASGSTFYYYAMGWYRQAPGKEREFVAAITFRCGTTYYADSVKGRFTISRDYAKNTVYLQMNSLKREDTAVYYCDAKPPFRNYVRYDYWGQGTQVTVSS”, the “polyreactivity (PSR sort gate)” value is listed as “high polyreactivity”.

In the case of “QVQLVESGGGLVQAGGSLRISCAASGSTLFNYAMGWYRQAPGKERELVAAIDWGDGTTYYADSVKGRFTISRDNAKNTVYLQMNSLQPEDTAVYYCAAEEFYSPYDYWGQGTQVTVSS”, the “polyreactivity (PSR sort gate)” value is recorded as “high polyreactivity”.

Regarding “QVQLVESGGGLVQAGGSLRISCAASGSTLYRNAMGWYRQAPGKEMELVAAISSSGGTTFYADSVKGRFTISRDNAKNTVYLQMNSLKPEDTAVYYCNRNARKLRTVHSSVFGLDYWGQGTQVTVSS”, the “polyreactivity (PSR sort gate)” value is listed as “low polyreactivity”.

As for “QVQLVESGGGLVQAGGSLRISCAASGSTYRKYTMGWYRQAPGNERDLVATISWSGGSTNYADSVKGRFTISRDNAKTIVYLQMISLKPDDTAVYYCNAYVSPRYRGSRYYYWGQGTQVTVSS”, the “polyreactivity (PSR sort gate)” value was “high polyreactivity”.

Take “QVQLVESGGGLVQAGGSLRISCAASGYIFAVYAMGWYRQAPGKEREFVAVITWRGGSTYYADSVKGRFTISRDNAKNTVYLQMNSLKPEDTAVYYCAARWHFLTSSRFDYWGQGTQVTVSS”: the “polyreactivity (PSR sort gate)” value is “high polyreactivity”.

In the case of “QVQLVESGGGLVQAGGSLRISCAASGYIFFGNAMGWYRQAPGKERELVAAIRGRGTSTYYADSVKGRFTISRDNAKNTVYLQMNSLKPEDTAVYYFAADVVRSNFYGTFLYDYDYWGQCTQVTVSS”, the “polyreactivity (PSR sort gate)” value is on record as “low polyreactivity”.

On to “QVQLVESGGGLVQAGGSLRISCAASGYIFGTYAMGWYRQAPGKERELVAAISSTGRTYYADSVKGRFTISLDNAMNNVYLQMNRLKPEYTAVYYCAADVRTPSEGYDYWGQGTQVTVSS”, for which the “polyreactivity (PSR sort gate)” value is on record as “high polyreactivity”.

Turning to “QVQLVESGGGLVQAGGSLRISCAASGYNSYSNAMGWYRQAPGKERELVASILSGGSTNYADSVKGRFTISRDNAKNTVYLQMNSLKPEDTAVSYCATRVRTRTGYQYYYWGQGTQVTVSS”, the “polyreactivity (PSR sort gate)” value is listed as “high polyreactivity”.

With “QVQLVESGGGLVQAGGSLRISCAASGYTFGKNAMGWYRQAPGKERELVAGISSRGGSTYYADSVKGRFTISRDNAKNTLYLQMNSLKPEDTAVYYCAAVAYTGGPRKLGFNYWGQGTQVTVSS”, the “polyreactivity (PSR sort gate)” value was “high polyreactivity”.

For the sequence “QVQLVESGGGLVQAGGSLRISCAASGYTVKSYAMGWYRQAPGKERELVAAISNGGNTYYADSVKGRFTISRDNAKNTVYLQMNSLKPEDTAVYYCAARYGYFYSRYDHWGQGTQVTVSS”, the “polyreactivity (PSR sort gate)” value is on record as “low polyreactivity”.

“QVQLVESGGGLVQAGGSLRISCAASVSIFARYAMGWYRQAPGQERELVAAISSRGGSTYYADSVKGRFTISRDNAKNTVYLQMNSLKPEDTAVYYCNKGYLVRPGVYWGQGTQVTVSS”: the “polyreactivity (PSR sort gate)” value is given as “high polyreactivity”.

Consider “QVQLVESGGGLVQAGGSLRISCDASGSIYSSNALGWYSQAPGKERELVAAISSSGSRTYYADSVKGRFTISRDKALITVYVQMNSLIPVDTAVDYWAAVIRYTRSYDYWGQGTQVTVSS”, for which the “polyreactivity (PSR sort gate)” value is on record as “high polyreactivity”.

With “QVQLVESGGGLVQAGGSLRISCPASGTFYYYGMGWSRQAPGKERELVAAISWSGTSTFYADSVKGRFTISRDNAKNTVYIQMKSLKPEDTAVYYCHKPKFDSSGHDYWGQGTQETVSS”, the “polyreactivity (PSR sort gate)” value is listed as “low polyreactivity”.

Take “QVQLVESGGGLVQAGGSLRISSAASGNIFLYYAMGWYRQAPGKERELVAYIDSSGASTYYADSVKGRFTISRDNAKNTVYLQMNSLKPEDTAVYFCASDEGTVGGQQLRPLMDYWGQGTQVTVSS”: the “polyreactivity (PSR sort gate)” value was “low polyreactivity”.

Turning to “QVQLVESGGGLVQAGGSLRISSAASGRIFVTNAMRWYRQAPGKERELLAAITRGGNTNYADSVKGRFTISRDNAKNTVYLQMNSLKPEDTAVYYCAADTSYDSVYGYFPGYYYWGQGTQVTVSS”, the “polyreactivity (PSR sort gate)” value was “low polyreactivity”.

In the case of “QVQLVESGGGLVQAGGSLRITCAASGIIFGSYAMGWYRQAPGKETELVAAISTSGGSTYYADSVKGRFTISRDNAKNTVYLQMNSLKPEDTAVYYCNKAGVYRDSSRYNYWGQGTQVTVSS”, the “polyreactivity (PSR sort gate)” value was “high polyreactivity”.

For the sequence “QVQLVESGGGLVQAGGSLRITCAASGSTFGPYVMGWYRQAPGKEMELVAAISLSGASTYYADSVKGRFTISRDNAKNNVYLQMISLKPEETAVYYCAAQTPYGMYYWGQGTQVTVSS”, the “polyreactivity (PSR sort gate)” value is “low polyreactivity”.

As for “QVQLVESGGGLVQAGGSLRLCCAASGRIFAGNAMGWYRQAPGKEREFVAGISKGGGRTYYADSVKGRCTISRDNAKKTVYLQMNSLKPEDTAVYYCAALPPRASSDAGGWYVAEDYWGQGTQVTVSS”, the “polyreactivity (PSR sort gate)” value was “high polyreactivity”.

With “QVQLVESGGGLVQAGGSLRLCCAASGYIFGWYTMGWYRPAPGKERELVAAISGGGRTYYADSVKGRFTISRDNAKNTVYLQKNSLKPEDTAVYYCNAYSTYIKYDYWGQGTQVTVSS”, the “polyreactivity (PSR sort gate)” value was “high polyreactivity”.

Consider “QVQLVESGGGLVQAGGSLRLCCAAYGSIFARNSMGWYRHAPGKERELVAVITTGGRTYYADSVKGRFTISRDNAKNTVYLQMNSMKPEDTAVYYCATRVIYGNSGGYWGKGTQVTVSS”, for which the “polyreactivity (PSR sort gate)” value was “high polyreactivity”.

“QVQLVESGGGLVQAGGSLRLICAASGFIFDSYAMGWYRQAPGKARELVAAISVNGGTTYYADSVKGRFTISRDNAKNTVYLQMISLKPEDTAVYFCNADLYYDVGQPMDYWGQGTQVTVSS”: the “polyreactivity (PSR sort gate)” value is recorded as “low polyreactivity”.

On to “QVQLVESGGGLVQAGGSLRLICAASGFIFFSNAMGWYRQAPGKERELVAVIDRATSTYYADSVKGRFTISRDNAKNTFYLQLNSLKPEDTAVYYCNADGEEVYDFNYFLSFKGDYWGQGTQVTVSS”, for which the “polyreactivity (PSR sort gate)” value is “low polyreactivity”.

As to “QVQLVESGGGLVQAGGSLRLICAASGFIFGKYVMGWYRQAAGKERELVAAITSSGGRTYYADSVKGRFTISRDNAKNTVYLQMNSLKPEDTGVYYCAARYVSYWPWFEYDYWGQGTQVTVSS”, the “polyreactivity (PSR sort gate)” value is reported as “high polyreactivity”.
